{
  "source": "patent US20240141072A1",
  "about": "(published 2024)",
  "binders": {"B1": {"name": "biotinylated human DLL3 protein expressed as a human IgG1 fusion protein (Fc fusion, not shown: a dimerising Fc or GST)", "chain": "AGVFELQIHSFGPGPGPGAPRSPCSARLPCRLFFRVCLKPGLSEEAAESPCALGAALSARGPVYTEQPGAPAPDLPLPDGLLQVPFRDAWPGTFSFIIETWREELGDQIGGPAWSLLARVAGRRRLAAGGPWARDIQRAGAWELRFSYRARCEPPAVGTACTRLCRPRSAPSRCGPGLRPCAPLEDECEAPLVCRAGCSPEHGFCEQPGECRCLEGWTGPLCTVPVSTSSCLSPRGPSSATTGCLVPGPGPCDGNPCANGGSCSETPRSFECTCPRGFYGLRCEVSGVTCADGPCFNGGLCVGGADPDSAYICHCPPGFQGSNCEKRVDRCSLQPCRNGGLCLDLGHALRCRCRAGFAGPRCEHDLDDCAGRACANGGTCVEGGGAHRCSCALGFGGRDCRERADPCAARPCAHGGRCYAHFSGLVCACAPGYMGARCEFPVHPDGASALPAAPPGLRPGDPQRYL", "modifications": "biotinylated"}},
  "assay_in_all_cases": "Octet BLI; biotinylated huDLL3-IgG1 fusion on streptavidin tips; single 50 nM trispecific, conditioned medium",
  "key": {"[1]": {"molecular_target": "T1, anti-DLL3 trispecific protein with DLL3 binding domain 52C04", "T1 construct": "trispecific, one chain; also called 52C4", "T1 sequence (chain, as listed by the source)": "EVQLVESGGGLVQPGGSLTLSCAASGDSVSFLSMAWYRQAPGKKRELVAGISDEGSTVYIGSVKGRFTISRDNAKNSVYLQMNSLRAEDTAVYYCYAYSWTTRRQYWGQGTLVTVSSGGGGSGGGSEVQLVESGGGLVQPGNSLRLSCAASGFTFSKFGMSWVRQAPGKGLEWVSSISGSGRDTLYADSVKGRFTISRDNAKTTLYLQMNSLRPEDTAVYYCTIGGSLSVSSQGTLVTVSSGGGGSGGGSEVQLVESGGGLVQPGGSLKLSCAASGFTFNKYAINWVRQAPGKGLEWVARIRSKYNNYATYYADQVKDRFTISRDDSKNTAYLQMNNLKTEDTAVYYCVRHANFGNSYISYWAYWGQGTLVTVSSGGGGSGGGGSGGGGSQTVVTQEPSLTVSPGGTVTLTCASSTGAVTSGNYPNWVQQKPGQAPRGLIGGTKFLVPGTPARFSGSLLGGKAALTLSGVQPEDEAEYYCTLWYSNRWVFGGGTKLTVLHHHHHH", "description": "(§1) Using the conditioned medium with known concentrations of the anti-DLL3 trispecific proteins, the relative binding affinities of the anti-DLL3 trispecific proteins toward human DLL3 protein were measured using a method where biotinylated version of human DLL3 protein were expressed as a human IgG1 fusion protein, and the binding affinity measurement was carried out in an Octet instrument with streptavidin tips."}, "[2]": {"molecular_target": "T2, anti-DLL3 trispecific protein with DLL3 binding domain 51H04", "T2 construct": "trispecific, one chain", "description": "as §1"}, "[3]": {"molecular_target": "T3, anti-DLL3 trispecific protein with DLL3 binding domain 42A06", "T3 construct": "trispecific, one chain", "description": "as §1"}, "[4]": {"molecular_target": "T4, anti-DLL3 trispecific protein with DLL3 binding domain 53A04", "T4 construct": "trispecific, one chain", "T4 sequence (chain, as listed by the source)": "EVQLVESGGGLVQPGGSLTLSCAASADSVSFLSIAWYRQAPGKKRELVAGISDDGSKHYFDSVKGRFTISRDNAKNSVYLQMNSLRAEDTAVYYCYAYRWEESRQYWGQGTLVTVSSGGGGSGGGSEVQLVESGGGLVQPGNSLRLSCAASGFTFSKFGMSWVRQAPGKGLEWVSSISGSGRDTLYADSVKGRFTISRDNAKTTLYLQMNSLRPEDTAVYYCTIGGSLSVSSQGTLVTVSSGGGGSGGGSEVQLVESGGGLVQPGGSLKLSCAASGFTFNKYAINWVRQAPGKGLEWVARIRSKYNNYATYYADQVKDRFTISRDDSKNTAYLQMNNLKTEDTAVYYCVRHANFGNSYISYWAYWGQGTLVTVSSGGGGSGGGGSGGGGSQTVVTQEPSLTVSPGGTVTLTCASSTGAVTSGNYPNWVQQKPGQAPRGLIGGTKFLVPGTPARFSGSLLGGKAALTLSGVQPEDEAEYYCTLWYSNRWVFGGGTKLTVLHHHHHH", "description": "as §1"}, "[5]": {"molecular_target": "T5, anti-DLL3 trispecific protein with DLL3 binding domain 51G02", "T5 construct": "trispecific, one chain; also called 51G2", "description": "as §1"}, "[6]": {"molecular_target": "T6, anti-DLL3 trispecific protein with DLL3 binding domain 42B10", "T6 construct": "trispecific, one chain", "T6 sequence (chain, as listed by the source)": "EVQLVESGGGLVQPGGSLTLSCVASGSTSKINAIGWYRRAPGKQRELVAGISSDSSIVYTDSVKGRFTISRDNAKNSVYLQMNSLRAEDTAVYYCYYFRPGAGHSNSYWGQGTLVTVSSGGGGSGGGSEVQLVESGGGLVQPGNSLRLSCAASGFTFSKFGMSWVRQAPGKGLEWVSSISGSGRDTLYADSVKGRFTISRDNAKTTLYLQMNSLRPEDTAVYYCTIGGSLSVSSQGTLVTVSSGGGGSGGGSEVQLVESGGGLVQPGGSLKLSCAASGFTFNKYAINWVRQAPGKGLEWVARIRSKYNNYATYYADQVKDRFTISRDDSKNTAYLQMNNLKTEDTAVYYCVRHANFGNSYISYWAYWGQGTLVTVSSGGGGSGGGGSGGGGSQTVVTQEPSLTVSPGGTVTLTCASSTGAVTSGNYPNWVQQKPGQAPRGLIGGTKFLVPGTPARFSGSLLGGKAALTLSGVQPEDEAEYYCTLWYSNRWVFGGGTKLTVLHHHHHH", "description": "as §1"}, "[7]": {"molecular_target": "T7, anti-DLL3 trispecific protein with DLL3 binding domain 42G07", "T7 construct": "trispecific, one chain", "description": "as §1"}, "[8]": {"molecular_target": "T8, anti-DLL3 trispecific protein with DLL3 binding domain 53C04", "T8 construct": "trispecific, one chain", "T8 sequence (chain, as listed by the source)": "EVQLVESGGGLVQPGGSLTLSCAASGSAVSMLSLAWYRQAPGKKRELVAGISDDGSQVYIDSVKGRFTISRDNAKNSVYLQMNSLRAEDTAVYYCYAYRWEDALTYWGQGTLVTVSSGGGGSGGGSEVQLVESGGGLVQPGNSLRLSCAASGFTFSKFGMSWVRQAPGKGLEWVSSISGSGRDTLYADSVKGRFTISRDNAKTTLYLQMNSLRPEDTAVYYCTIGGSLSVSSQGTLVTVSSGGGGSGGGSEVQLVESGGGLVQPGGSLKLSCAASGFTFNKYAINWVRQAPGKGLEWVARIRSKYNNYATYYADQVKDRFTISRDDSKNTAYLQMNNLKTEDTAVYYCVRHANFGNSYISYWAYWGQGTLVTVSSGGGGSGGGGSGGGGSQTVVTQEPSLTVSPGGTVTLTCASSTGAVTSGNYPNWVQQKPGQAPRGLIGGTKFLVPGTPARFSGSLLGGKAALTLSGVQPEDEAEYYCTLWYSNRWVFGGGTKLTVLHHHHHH", "description": "as §1"}, "[9]": {"molecular_target": "T9, anti-DLL3 trispecific protein with DLL3 binding domain 42A11", "T9 construct": "trispecific, one chain", "T9 sequence (chain, as listed by the source)": "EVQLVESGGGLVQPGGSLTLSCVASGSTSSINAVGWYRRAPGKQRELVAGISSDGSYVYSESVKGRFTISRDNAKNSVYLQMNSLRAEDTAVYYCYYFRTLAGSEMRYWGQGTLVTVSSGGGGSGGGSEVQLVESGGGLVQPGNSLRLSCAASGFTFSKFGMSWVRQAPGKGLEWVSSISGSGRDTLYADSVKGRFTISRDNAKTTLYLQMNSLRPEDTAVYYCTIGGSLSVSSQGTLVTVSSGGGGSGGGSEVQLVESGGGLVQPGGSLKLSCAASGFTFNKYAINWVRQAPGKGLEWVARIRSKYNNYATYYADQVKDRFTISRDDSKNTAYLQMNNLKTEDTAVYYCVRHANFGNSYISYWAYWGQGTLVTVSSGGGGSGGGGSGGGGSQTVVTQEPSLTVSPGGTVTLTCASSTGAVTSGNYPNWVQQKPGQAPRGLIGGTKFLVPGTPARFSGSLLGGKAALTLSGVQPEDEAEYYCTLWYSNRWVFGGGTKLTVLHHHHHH", "description": "as §1"}, "[10]": {"molecular_target": "T10, anti-DLL3 trispecific protein with DLL3 binding domain 42H08", "T10 construct": "trispecific, one chain", "description": "as §1"}, "[11]": {"molecular_target": "T11, anti-DLL3 trispecific protein with DLL3 binding domain 51A03", "T11 construct": "trispecific, one chain", "description": "as §1"}, "[12]": {"molecular_target": "T12, anti-DLL3 trispecific protein with DLL3 binding domain 52D04", "T12 construct": "trispecific, one chain; same domain order as the TAC protein m79; also called 52D4", "description": "as §1"}, "[13]": {"molecular_target": "T13, anti-DLL3 trispecific protein with DLL3 binding domain 42H05", "T13 construct": "trispecific, one chain", "description": "as §1"}, "[14]": {"molecular_target": "T14, anti-DLL3 trispecific protein with DLL3 binding domain 41D02", "T14 construct": "trispecific, one chain", "description": "as §1"}, "[15]": {"molecular_target": "T15, anti-DLL3 trispecific protein with DLL3 binding domain 42A07", "T15 construct": "trispecific, one chain", "description": "as §1"}, "[16]": {"molecular_target": "T16, anti-DLL3 trispecific protein with DLL3 binding domain 42B06", "T16 construct": "trispecific, one chain", "description": "as §1"}, "[17]": {"molecular_target": "T17, anti-DLL3 trispecific protein with DLL3 binding domain 51D03", "T17 construct": "trispecific, one chain", "description": "as §1"}, "[18]": {"molecular_target": "T18, anti-DLL3 trispecific protein with DLL3 binding domain 42G05", "T18 construct": "trispecific, one chain", "description": "as §1"}, "[19]": {"molecular_target": "T19, anti-DLL3 trispecific protein with DLL3 binding domain 42A08", "T19 construct": "trispecific, one chain", "description": "as §1"}, "[20]": {"molecular_target": "T20, anti-DLL3 trispecific protein with DLL3 binding domain 42E01", "T20 construct": "trispecific, one chain", "description": "as §1"}, "[21]": {"molecular_target": "T21, anti-DLL3 trispecific protein with DLL3 binding domain 41D03", "T21 construct": "trispecific, one chain", "description": "as §1"}, "[22]": {"molecular_target": "T22, anti-DLL3 trispecific protein with DLL3 binding domain 51C02", "T22 construct": "trispecific, one chain", "T22 sequence (chain, as listed by the source)": "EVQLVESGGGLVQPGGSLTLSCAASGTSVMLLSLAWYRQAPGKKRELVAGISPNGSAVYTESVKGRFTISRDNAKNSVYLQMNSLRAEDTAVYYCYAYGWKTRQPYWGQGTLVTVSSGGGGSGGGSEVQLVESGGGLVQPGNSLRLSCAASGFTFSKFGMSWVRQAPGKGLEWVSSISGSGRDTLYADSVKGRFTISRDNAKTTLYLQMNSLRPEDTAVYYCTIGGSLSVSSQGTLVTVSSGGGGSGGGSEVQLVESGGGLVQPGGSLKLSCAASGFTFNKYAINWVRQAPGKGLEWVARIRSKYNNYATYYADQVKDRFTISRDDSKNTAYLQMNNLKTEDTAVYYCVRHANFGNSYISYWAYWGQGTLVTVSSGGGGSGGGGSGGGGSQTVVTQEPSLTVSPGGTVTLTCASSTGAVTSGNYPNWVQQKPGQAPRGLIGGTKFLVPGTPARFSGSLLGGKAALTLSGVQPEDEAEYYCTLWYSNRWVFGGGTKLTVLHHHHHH", "description": "as §1"}, "[23]": {"molecular_target": "T23, anti-DLL3 trispecific protein with DLL3 binding domain 51B04", "T23 construct": "trispecific, one chain", "T23 sequence (chain, as listed by the source)": "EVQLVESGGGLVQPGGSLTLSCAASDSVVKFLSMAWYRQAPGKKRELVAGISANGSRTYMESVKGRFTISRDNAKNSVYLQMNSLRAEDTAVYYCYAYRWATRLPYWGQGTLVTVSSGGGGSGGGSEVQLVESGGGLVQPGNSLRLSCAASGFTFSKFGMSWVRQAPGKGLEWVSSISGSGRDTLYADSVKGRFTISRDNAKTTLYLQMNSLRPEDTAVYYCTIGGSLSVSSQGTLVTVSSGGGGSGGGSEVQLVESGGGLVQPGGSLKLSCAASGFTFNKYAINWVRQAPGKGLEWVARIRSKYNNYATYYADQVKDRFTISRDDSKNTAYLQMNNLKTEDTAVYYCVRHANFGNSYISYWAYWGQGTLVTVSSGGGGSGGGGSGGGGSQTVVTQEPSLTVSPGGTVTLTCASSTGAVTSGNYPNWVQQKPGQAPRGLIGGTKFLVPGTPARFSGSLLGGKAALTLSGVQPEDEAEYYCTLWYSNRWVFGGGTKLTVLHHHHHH", "description": "as §1"}, "[24]": {"molecular_target": "T24, anti-DLL3 trispecific protein with DLL3 binding domain 52B01", "T24 construct": "trispecific, one chain; also called 52B1", "description": "as §1"}, "[25]": {"molecular_target": "T25, anti-DLL3 trispecific protein with DLL3 binding domain 51F01", "T25 construct": "trispecific, one chain", "T25 sequence (chain, as listed by the source)": "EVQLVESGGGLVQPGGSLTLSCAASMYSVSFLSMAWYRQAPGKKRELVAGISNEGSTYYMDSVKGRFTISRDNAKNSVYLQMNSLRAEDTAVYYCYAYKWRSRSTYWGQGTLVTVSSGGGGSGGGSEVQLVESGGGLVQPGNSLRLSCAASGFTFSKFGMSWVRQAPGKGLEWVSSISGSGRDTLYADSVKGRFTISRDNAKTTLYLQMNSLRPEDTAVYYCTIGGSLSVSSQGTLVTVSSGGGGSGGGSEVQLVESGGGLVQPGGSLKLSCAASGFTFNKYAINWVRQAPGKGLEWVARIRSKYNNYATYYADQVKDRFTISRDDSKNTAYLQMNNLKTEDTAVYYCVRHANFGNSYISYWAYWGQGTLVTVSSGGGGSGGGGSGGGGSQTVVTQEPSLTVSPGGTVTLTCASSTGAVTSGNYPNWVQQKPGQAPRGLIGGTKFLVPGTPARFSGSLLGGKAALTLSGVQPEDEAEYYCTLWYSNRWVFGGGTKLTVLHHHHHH", "description": "as §1"}, "[26]": {"molecular_target": "T26, anti-DLL3 trispecific protein with DLL3 binding domain 51G04", "T26 construct": "trispecific, one chain", "T26 sequence (chain, as listed by the source)": "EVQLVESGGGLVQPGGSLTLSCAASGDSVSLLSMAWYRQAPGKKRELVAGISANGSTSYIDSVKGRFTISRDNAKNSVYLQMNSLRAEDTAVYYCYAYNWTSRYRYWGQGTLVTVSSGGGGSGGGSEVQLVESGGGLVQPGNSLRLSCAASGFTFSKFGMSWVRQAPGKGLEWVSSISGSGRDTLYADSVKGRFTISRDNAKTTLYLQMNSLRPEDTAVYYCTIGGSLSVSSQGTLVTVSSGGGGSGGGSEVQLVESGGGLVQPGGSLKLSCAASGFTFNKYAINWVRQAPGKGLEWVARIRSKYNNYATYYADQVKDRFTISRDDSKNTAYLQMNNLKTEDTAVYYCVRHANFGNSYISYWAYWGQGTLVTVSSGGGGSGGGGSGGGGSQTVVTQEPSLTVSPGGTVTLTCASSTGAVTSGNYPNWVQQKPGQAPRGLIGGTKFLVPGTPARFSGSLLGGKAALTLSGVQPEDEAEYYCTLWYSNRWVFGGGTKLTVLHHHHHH", "description": "as §1"}, "[27]": {"molecular_target": "T27, anti-DLL3 trispecific protein with DLL3 binding domain 53B06", "T27 construct": "trispecific, one chain", "description": "as §1"}},
  "data": [
    {"binder": "B1", "values": [
      {"measurement": "Kd", "setting": "[1]", "value": 0.82, "unit": "nM"},
      {"measurement": "Kd", "setting": "[2]", "value": 1, "unit": "nM"},
      {"measurement": "Kd", "setting": "[3]", "value": 1, "unit": "nM"},
      {"measurement": "Kd", "setting": "[4]", "value": 0.42, "unit": "nM"},
      {"measurement": "Kd", "setting": "[5]", "value": 1.3, "unit": "nM"},
      {"measurement": "Kd", "setting": "[6]", "value": 1.3, "unit": "nM"},
      {"measurement": "Kd", "setting": "[7]", "value": 1.3, "unit": "nM"},
      {"measurement": "Kd", "setting": "[8]", "value": 0.5, "unit": "nM"},
      {"measurement": "Kd", "setting": "[9]", "value": 2, "unit": "nM"},
      {"measurement": "Kd", "setting": "[10]", "value": 2.1, "unit": "nM"},
      {"measurement": "Kd", "setting": "[11]", "value": 2.2, "unit": "nM"},
      {"measurement": "Kd", "setting": "[12]", "value": 0.5, "unit": "nM"},
      {"measurement": "Kd", "setting": "[13]", "value": 2.7, "unit": "nM"},
      {"measurement": "Kd", "setting": "[14]", "value": 2.7, "unit": "nM"},
      {"measurement": "Kd", "setting": "[15]", "value": 3.2, "unit": "nM"},
      {"measurement": "Kd", "setting": "[16]", "value": 3.2, "unit": "nM"},
      {"measurement": "Kd", "setting": "[17]", "value": 3.3, "unit": "nM"},
      {"measurement": "Kd", "setting": "[18]", "value": 3.4, "unit": "nM"},
      {"measurement": "Kd", "setting": "[19]", "value": 3.6, "unit": "nM"},
      {"measurement": "Kd", "setting": "[20]", "value": 4, "unit": "nM"},
      {"measurement": "Kd", "setting": "[21]", "value": 4.8, "unit": "nM"},
      {"measurement": "Kd", "setting": "[22]", "value": 7.5, "unit": "nM"},
      {"measurement": "Kd", "setting": "[23]", "value": 16, "unit": "nM"},
      {"measurement": "Kd", "setting": "[24]", "value": 0.61, "unit": "nM"},
      {"measurement": "Kd", "setting": "[25]", "value": 16, "unit": "nM"},
      {"measurement": "Kd", "setting": "[26]", "value": 21, "unit": "nM"},
      {"measurement": "Kd", "setting": "[27]", "value": 0.71, "unit": "nM"}
    ]}
  ]
}
